Source: paper PMC4330348, “Identification of protein complexes that bind to histone H3 combinatorial modifications using super-SILAC and weighted correlation network analysis” (Nucleic Acids Research, 2015)
Each block holds one binder with its values, some of them ahead of it.

Biological target: T1, histone H3 peptide aa1–20 trimethylated at K9 (H3K9me3) (UniProt P68431 2-21, trimethyl-lysine at K9; biotin attached to the C-terminus via a glycine-lysine linker)
T1 construct: histone H3 N-terminal tail, aa1–20; glycine-lysine linker (told in words), carries the biotin; also called H3K9me3 modified H3 1–20 peptide; source: synthetic peptide (GL biochem)
Test: affinity purification with mass spectrometry; biotinylated histone H3 peptides on NeutrAvidin beads; pooled nuclear and MNase-solubilised chromatin extracts of SILAC-labelled MPC11 cells adjusted to 150 mM NaCl, 4°C; washes with 150 mM KCl, 0.2% Triton X-100; heavy pulldowns against a mixed light reference (super-SILAC); beads alone as control; two replicates
Conditions: one partner purified

fold binding relative to the H3K27me3 peptide: ~3 fold
B1: Ezh2 (enzyme)
chain: not shown
notes: Ezh2, mouse; also called PRC2 complex member; source: endogenous, MPC11 nuclear and chromatin extract

fold binding relative to the H3K27me3 peptide: ~3 fold
B2: Eed (natural protein)
chain: not shown
notes: Eed, mouse; also called PRC2 complex member; source: endogenous, MPC11 nuclear and chromatin extract

fold binding relative to the H3K27me3 peptide: ~3 fold
B3: Suz12 (natural protein, mouse (endogenous in MPC11), UniProt Q80U70 1-741, looked up)
chain: MAPQKHGGGGGGGSGPSAGSGGGGFGGSAAAVAAAASGGKSGGGGCGGGGSYSASSSSAAAAAAAAGAAVLPVKKPKMEHVQADHELFLQAFEKPTQIYRFLRTRNLIAPIFLHRTLTYMSHRNSRTSIKRKTFKVDDMLSKVEKMKGEQESHSLSAHLQLTFTGFFHKNDKPSQNSENEQNSVTLEVLLVKVCHKKRKDVSCPIRQVPTGKKQVPLNPDLNQTKPGNFPSLAVSSNEFEPSNSHMVKSYSLLFRVTRPGRREFNGMINGETNENIDVSEELPARRKRNREDGEKTFVAQMTVFDKNRRLQLLDGEYEVAMQEMEECPISKKRATWETILDGKRLPPFETFSQGPTLQFTLRWTGETNDKSTAPVAKPLATRNSESLHQENKPGSVKPAQTIAVKETLTTELQTRKEKDNSNESRQKLRIFYQFLYNNNTRQQTEARDDLHCPWCTLNCRKLYSLLKHLKLCHSRFIFNYVYHPKGARIDVSINECYDGSYAGNPQDIHRQPGFAFSRNGPVKRTPITHILVCRPKRTKASMSEFLESEDGEVEQQRTYSSGHNRLYFHSDTCLPLRPQEMEVDSEDEKDPEWLREKTITQIEEFSDVNEGEKEVMKLWNLHVMKHGFIADNQMNHACMLFVENYGQKIIKKNLCRNFMLHLVSMHDFNLISIMSIDKAVTKLREMQQKLEKGESATPSNEEIAEEQNGTANGFSETNSKEKALETDGVSGVPKQSKKQKL
notes: Suz12, mouse; also called PRC2 complex member; source: endogenous, MPC11 nuclear and chromatin extract
